In the test the target is Rev_(70-Dimer) (HIV) (UniProt P04618). In words: SEC-MALS.

For “Rev_(70-Dimer) (from UniProt P04618 1-70) (domain or fragment)”, the stoichiometry N turned out to be 2.

Values taken from PMC2988976.
